Data on one protein can be found in article PMC7528686 (Molecules and Cells, 2020).

This data set concerns the molecule itself. The data set is described as follows: SEC.

B1: CafA (residues 75-287), β-class carbonic anhydrase of Aspergillus fumigatus (enzyme, UniProt A4UTP0 75-287, looked up)
chain: DSLSDKFSAALAKNKEWAAKCSQEHPELLPTLAVGQHPEILWIGCSDSRCPETTILGLLPGDVFTHRNIANVIHPADLSSGAVIEFAVRHLRVKHVVICGHTKCGGVAAALGNKGLGILDPWLIPLRQLREQHLAELQSLSRDEAVVRLAELNVKEGLKALTQKSVVLEAMQERGLQVHGLIYDVGSGFLRQLDAAEPEEALKARLTSFKTDA
B1: the “stoichiometry N” value amounted to 4.
